# Test results: patent publication US7183376
# Molecular target: human CD28 receptor on T cells (human, UniProt P10747 19-220)
# Test: cell-based or functional assay
binder,measurement,value
Round 2 CD28BP-15 (ligand) ITPKSVTKRVKETVMLSCDYNTSTEELTSLRIYWQKDSKMVLAILPGKVQVWPEYKNRTITDMNDNPRIVILALRPSDSGTYTCVIQKPVLKGAYKLEHLASVRLMIRADFPVPTINDLGNPSPNIRRLICSTSGGFPRPHLYWLENGEELNATNTTVSQDPGTELYMISSELDFNVTNNHSIVCLIKYGELSVSQIFPWSKPKQEPPIDQLPFWVIIPVSGALVLTAVVLYCLACRHVARWKRTRRNEETVGTERLSPIYLGSAQSSG,"T cell proliferation (3H-thymidine), transfected 293 HEK cells",~3 fold
